Test results reported in patent US20230038638A1, “COMPLEMENT FACTOR I-RELATED COMPOSITIONS AND METHODS” (published 2023).
Residue numbers refer to the chain shown, from its start.

Tests used:
human C4b (human) [1] = biological target: T1, human C4b (human) (UniProt P0C0L4)
T1 sequence: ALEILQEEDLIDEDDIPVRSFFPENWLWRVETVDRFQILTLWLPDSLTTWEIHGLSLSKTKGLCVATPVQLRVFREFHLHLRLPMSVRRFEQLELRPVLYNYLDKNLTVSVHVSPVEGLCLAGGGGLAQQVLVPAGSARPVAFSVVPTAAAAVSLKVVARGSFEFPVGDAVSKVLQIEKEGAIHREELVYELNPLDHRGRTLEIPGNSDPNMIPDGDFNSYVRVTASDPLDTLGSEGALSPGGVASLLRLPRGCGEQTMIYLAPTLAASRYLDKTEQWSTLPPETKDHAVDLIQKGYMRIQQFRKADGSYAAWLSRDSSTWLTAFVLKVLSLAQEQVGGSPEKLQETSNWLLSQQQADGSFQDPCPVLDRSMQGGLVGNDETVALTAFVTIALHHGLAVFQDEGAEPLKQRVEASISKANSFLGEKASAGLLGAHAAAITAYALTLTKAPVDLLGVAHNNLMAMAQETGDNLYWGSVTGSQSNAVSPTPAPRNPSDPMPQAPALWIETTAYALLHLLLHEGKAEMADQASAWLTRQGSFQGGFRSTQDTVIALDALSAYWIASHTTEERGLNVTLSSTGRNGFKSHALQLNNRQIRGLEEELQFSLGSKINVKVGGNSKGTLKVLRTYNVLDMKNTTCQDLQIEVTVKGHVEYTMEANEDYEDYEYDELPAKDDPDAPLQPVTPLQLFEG

[2] = biological target: soluble human C3b (human) (UniProt P01024)
human C4b (human) [3] = biological target: T1, human C4b (human); remark: listed apart in the source
[4] = biological target: soluble human C3b (human) (UniProt P01024); remark: listed apart in the source
human C4b (human) [5] = biological target: T2, human C4b (human) (UniProt P0C0L5)
T2 sequence: T1 sequence with A151T, D317G, P364L, C365S, L368I, D369H, N420S, V451A, L454R, S530A

C4c EC50 (human C4b (human) [1]) | iC3b EC50 [2] | C4b Screen Ref Fold (fold of reference) (human C4b (human) [3]) | iC3b Screen Ref Fold (fold of reference) [4] | C4c EC50 (nM) (human C4b (human) [1]) | C4b Screen Ref Fold (fold of CFI-HSA wild type) (human C4b (human) [3]) | iC3b Screen Ref Fold (fold of CFI-HSA wild type) [4] | C4b Screen Ref Fold (fold vs CFI-HSA wild type) (human C4b (human) [5]) | iC3b Screen Ref Fold (fold vs CFI-HSA wild type) [4] | C4b Screen Ref Fold (fold of CFI-HSA wild type) (human C4b (human) [5]) | Substance
> 1000 nM | > 500 nM | 0.32 | 0 | – | – | – | – | – | – | CFI-HSA variant W381G (enzyme)
> 1000 nM | 35.9 nM | 0.49 | 0.47 | – | – | – | – | – | – | CFI-HSA variant G406P (enzyme)
– | 5.2 nM | – | – | > 1000 nM | 0.08 | 3.07 | – | – | – | CFI-HSA variant K504R; E530F; D425K; P558G (enzyme)
– | 78.7 nM | – | – | 886 nM | – | – | 0.31 | 0.26 | – | CFI-HSA variant E457H (enzyme)
7 nM | 4.7 nM | – | – | – | – | 1.46 | – | – | 4.37 | CFI-HSA variant E457G; N531G; N422K (enzyme)
– | 12.7 nM | – | – | 615 nM | – | – | 0.85 | 1.31 | – | CFI-HSA variant Q467K; F537K (enzyme)
> 1000 nM | 50.9 nM | – | – | – | – | 0.27 | – | – | 0 | CFI-HSA variant Y408L; P535G (enzyme)

More lines, now with the values behind:

Substance | C4c EC50 (human C4b (human) [1]) | iC3b EC50 [2] | C4b Screen Ref Fold (fold of reference) (human C4b (human) [3]) | iC3b Screen Ref Fold (fold of reference) [4] | C4c EC50 (nM) (human C4b (human) [1]) | C4b Screen Ref Fold (fold of CFI-HSA wild type) (human C4b (human) [3]) | iC3b Screen Ref Fold (fold of CFI-HSA wild type) [4] | C4b Screen Ref Fold (fold vs CFI-HSA wild type) (human C4b (human) [5]) | iC3b Screen Ref Fold (fold vs CFI-HSA wild type) [4] | C4b Screen Ref Fold (fold of CFI-HSA wild type) (human C4b (human) [5])
CFI-HSA variant G406D (enzyme) | – | 151 nM | 0.33 | 0.12 | > 1000 nM | – | – | – | – | –
CFI-HSA variant K504T (enzyme) | – | 43.5 nM | 0.1 | 0.73 | > 1000 nM | – | – | – | – | –
CFI-HSA variant D420G (enzyme) | – | 7 nM | – | – | 63.6 nM | 2.71 | 2.53 | – | – | –
CFI-HSA variant G406E (enzyme) | – | 116 nM | 0.88 | 0.13 | > 1000 nM | – | – | – | – | –
CFI-HSA variant G406M (enzyme) | > 1000 nM | 40.5 nM | 1.17 | 0.6 | – | – | – | – | – | –
CFI-HSA variant G406V (enzyme) | > 1000 nM | 43.1 nM | 1.09 | 0.44 | – | – | – | – | – | –
CFI-HSA variant Y408F; E457G; E461Q; R462K; E530Y; N531G; P558S (enzyme) | – | 5.1 nM | – | – | 20.4 nM | 4.41 | 2.21 | – | – | –
CFI-HSA variant Y408F (enzyme) | – | 19.2 nM | – | – | 225 nM | – | – | 1.88 | 0.61 | –
CFI-HSA variant N531G; P535A (enzyme) | – | 7.9 nM | – | – | 53.4 nM | – | – | 5.6 | 1.53 | –
CFI-HSA variant F464Y (enzyme) | – | 55.4 nM | – | – | 347 nM | – | – | 0.55 | 0.27 | –
CFI-HSA variant E457G; D425K (enzyme) | 43.3 nM | 4.1 nM | – | – | – | – | 1.5 | – | – | 5.33
